Substrate in the data set: COc1cccc(OC)c1O
As to the kind of experiment: purified protein. Format: biochemical, Caldalkalibacillus thermarum. The conditions noted are these: 25 °C, pH 8.0, citrate phosphate buffer 50 mM, 1 mM CuCl2, air O2.

Numbering of substitutions follows the chain as printed. Names may count otherwise.

B1: CtLac (Caldalkalibacillus thermarum TA2.A1) (protein)
chain: MKRILTLVLLLTVFIIVLVGCSTSPVDHSKMVHGEDDSTDNKQQEETQQIETSEGKVVINLEAKVTHWMFNNDLMEDIWTYNGSLPGQEIRVQEGDHVVINLTNSLDVPTSLHLHGVPVPNEMDGVPGVTQNAIMPGETFTYEFVADTPGTYWYHSHQDGANQIGMGLYGALVVEHKDQPDYDLDQVIMIDEWSSMGMADMDHSGMDHGDHGNMGDNSDQPPHAEMMNMMYDTLIVNGKASPVIEAIGVSEDDTIKLRFVNTGLFTQVITIPGHEFKVTHYDGQQVNEPELISDTAIRIAPAERYDVEIEMNQPGAWGIQIYAEENENLRGIVPLVYAGFEDEELQTADSIQSFLDISAYGSPMNVNFGEITKEFDMILGSDDGGETFTINGKQMTTKGFESHEDHEIYEVEEGDVVKVNIVNDTDVDHPMHLHGHFFYVVSRNGQPVKGSPILKETLNVRPNEAYEIVFVADNPGHWMFHCHELHHASGGMVSEVRYSGYTPAFTPDPNIPNKPE
notes: 516 aa, full-length gene incl; N-terminal region in pET28a(+) (NdeI/XhoI), His-tagged, E. coli BL21(DE3), HisTrap purified; primers encode N-terminus MKRILTLVL and C-terminus IPNKPE
As to B1, the Km (as a rule, the concentration of substrate that gives half-maximal velocity) is 157.2 µM; the kcat (commonly the number of substrate molecules converted per active site and unit of time at saturation) amounted to 1.1 s⁻¹; the catalytic efficiency (kcat/Km) (usually the turnover number divided by the Michaelis constant) was 7000 M⁻¹ s⁻¹.

B2: CtLac (Caldalkalibacillus thermarum TA2.A1; V243M) (protein)
chain: B1 chain with V243M
notes: as for B1
In the case of B2, the Km was found to be 674.2 µM, the kcat came to 0.1 s⁻¹ and the kcat/Km turned out to be 100 M⁻¹ s⁻¹.

B3: CtLac (Caldalkalibacillus thermarum TA2.A1; V243D) (protein)
chain: B1 chain with V243D
notes: as for B1
On to B3, for which the Km was found to be 137.2 µM, the kcat was found to be 2.7 s⁻¹ and the kcat/Km turned out to be 20000 M⁻¹ s⁻¹.
